Laboratory results published in article PMC12416549 (2024).
Substitutions are numbered along the chain they refer to. Names may count otherwise.

T1: TNFR1 (Homo sapiens, UniProt P19438)
T1 chain: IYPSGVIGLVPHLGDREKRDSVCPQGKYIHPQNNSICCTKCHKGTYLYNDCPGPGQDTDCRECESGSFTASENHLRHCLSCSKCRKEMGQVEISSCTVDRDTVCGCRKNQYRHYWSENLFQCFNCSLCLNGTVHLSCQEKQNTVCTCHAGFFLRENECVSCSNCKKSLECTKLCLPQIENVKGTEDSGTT

B1: K56Q (designed binder)
chain: SMEEEVEKAAKEYEKKKKEAIEKHLEKLKAKDKEAAERFLKELEEAAKEYAKDEAQTMSEEEAKRRAKKYKEKVLLSELSEEEQKEIKEAEEKLVRTILKYVEEAAK
B2: K107F (designed binder)
chain: B1 chain with Q56K, K107F
B3: E26C (designed binder)
chain: B1 chain with E26C, Q56K
B4: L43P (designed binder)
chain: B1 chain with L43P, Q56K
B5: K93N (designed binder)
chain: B1 chain with Q56K, K93N
B6: V74I (designed binder)
chain: B1 chain with Q56K, V74I
B7: K69F (designed binder)
chain: B1 chain with Q56K, K69F
B8: T57E (designed binder)
chain: B1 chain with Q56K, T57E
B9: A47D (designed binder)
chain: B1 chain with A47D, Q56K
B10: K23G (designed binder)
chain: B1 chain with K23G, Q56K
B11: K85E (designed binder)
chain: B1 chain with Q56K, K85E
B12: M58S (designed binder)
chain: B1 chain with Q56K, M58S
B13: R65I (designed binder)
chain: B1 chain with Q56K, R65I
B14: L94N (designed binder)
chain: B1 chain with Q56K, L94N
B15: K73S (designed binder)
chain: B1 chain with Q56K, K73S
B16: E22S (designed binder)
chain: B1 chain with E22S, Q56K
B17: A36Y (designed binder)
chain: B1 chain with A36Y, Q56K
B18: K56W (designed binder)
chain: B1 chain with Q56W
B19: L99Q (designed binder)
chain: B1 chain with Q56K, L99Q
B20: E91H (designed binder)
chain: B1 chain with Q56K, E91H
B21: K56R (designed binder)
chain: B1 chain with Q56R
B22: L76H (designed binder)
chain: B1 chain with Q56K, L76H
B23: A67W (designed binder)
chain: B1 chain with Q56K, A67W
B24: K52Q (designed binder)
chain: B1 chain with K52Q, Q56K

Biological target: T1, TNFR1
Test: yeast display SC50

| apparent Kd (screen) [nM] | Binder |
| --- | --- |
| 2.73 | B1 |
| 3 | B2 |
| 0.49 | B3 |
| 12.5 | B4 |
| 1.27 | B5 |
| 0.446 | B6 |
| 0.869 | B7 |
| 3 | B8 |
| 1.16 | B9 |
| 0.446 | B10 |
| 0.446 | B11 |
| 4.39 | B12 |
| 1.4 | B13 |
| 20.2 | B14 |
| 9.41 | B15 |
| 0.539 | B16 |
| 0.539 | B17 |
| 11.4 | B18 |
| 11.4 | B19 |
| 4.39 | B20 |
| 1.54 | B21 |
| 1.69 | B22 |
| 10.4 | B23 |
| 0.718 | B24 |
